Patent publication US20180112193A1, “CSF1 THERAPEUTICS” (University Court Of The University Of Edinburgh, priority 2013, published 2018)

Experiments:
male C57BI6 mice [1] = experiment: 2/3 partial hepatectomy in mice; type: in vivo, mouse
Protocol: Forty-eight male C57BI6 mice aged 10-12 weeks underwent either 2/3 partial hepatectomy, paracetamol intoxication or chronic liver injury plus 2/3 partial hepatectomy. 2/3 partial hepatectomy was performed by ligating the left lobe and left and right median lobes. Paracetamol intoxication was performed by intraperitoneal administration of 350 mg/kg paracetamol dissolved in phosphate buffered saline (PBS). Chronic liver injury plus 2/3 partial hepatectomy was performed by eight weeks intraperitoneal carbon tetrachloride administration 1 mcl/g twice weekly dissolved in olive oil followed by ⅔ partial hepatectomy as described above. […] Control mice (n=8 per injury model) received subcutaneous PBS of appropriate volume. […]
Following a midline laparotomy the liver was excised and weighed. Liver weight to body weight ratio was calculated and expressed as a percentage. Livers were fixed in 4% formalin overnight then transferred to 70% ethanol. Livers were then embedded in paraffin blocks and 4 μm sections cut. Immunohistochemistry for Ki67 (a marker of cellular proliferation expressed throughout the cell cycle) was performed following heat mediated antigen retrieval in Tris/EDTA solution at pH9. Hepatocyte proliferation was quantified by counting ki67 positive hepatocytes in 20 high powered fields (400×) per animal and the mean calculated. […]

weaner pigs = experiment: Preliminary experiment on weaners, circulating monocytes; type: in vivo, pig; details: three treatments with 0.4 mg/kg every alternative day
Protocol: Note that the peak plasma level obtained is only around 100 ng/ml, and it is completely cleared by 20 hours. By contrast, Fc-CSF-1 (FIGS. 9B and C) attains 100-fold higher plasma concentrations and remains elevated for up to 72 hours. A preliminary experiment on weaners determined that three treatments with 0.4 mg/kg with Fc-CSF-1 every alternative day produced a 2-3 fold increase in circulating monocyte numbers.

male C57BI6 mice [2] = experiment: Murine models of acute and acute-on-chronic liver injury (all three injury models); type: in vivo
Protocol: Forty-eight male C57BI6 mice aged 10-12 weeks underwent either 2/3 partial hepatectomy, paracetamol intoxication or chronic liver injury plus 2/3 partial hepatectomy. 2/3 partial hepatectomy was performed by ligating the left lobe and left and right median lobes. Paracetamol intoxication was performed by intraperitoneal administration of 350 mg/kg paracetamol dissolved in phosphate buffered saline (PBS). Chronic liver injury plus 2/3 partial hepatectomy was performed by eight weeks intraperitoneal carbon tetrachloride administration 1 mcl/g twice weekly dissolved in olive oil followed by ⅔ partial hepatectomy as described above. […] Control mice (n=8 per injury model) received subcutaneous PBS of appropriate volume. All mice were culled on day 4 following injury (partial hepatectomy or paracetamol intoxication).
Following a midline laparotomy the liver was excised and weighed. Liver weight to body weight ratio was calculated and expressed as a percentage. Livers were fixed in 4% formalin overnight then transferred to 70% ethanol. Livers were then embedded in paraffin blocks and 4 μm sections cut. Immunohistochemistry for Ki67 (a marker of cellular proliferation expressed throughout the cell cycle) was performed following heat mediated antigen retrieval in Tris/EDTA solution at pH9. Hepatocyte proliferation was quantified by counting ki67 positive hepatocytes in 20 high powered fields (400×) per animal and the mean calculated.
The effects of Fc-CSF1 on liver regeneration in murine models of acute liver injury (partial hepatectomy; paracetamol intoxication) and acute-on-chronic liver injury (chronic liver injury plus partial hepatectomy) were studieD. The treatment group (n=8 per injury model) received 0.5 mcg/g Fc-CSF1 administered subcutaneously immediately following either partial hepatectomy or paracetamol intoxication and subsequently every 24 hours for three further doses. Control mice (n=8 per injury model) received subcutaneous PBS of appropriate volume. […]

mouse bone marrow cells = experiment: Proliferation of mouse bone marrow cells; type: cell-based; details: data not shown
Protocol: Stable Ba/F3 cells expressing porcine CSF-1R were maintained in culture with complete RPMI supplemented with either 10^4 Units/ml rh-CSF-1 or 10% IL-3 conditioned medium prior to MTT assay. 2×10^4 cells/well (Ba/F3 cells and Ba/F3 transfectants), or 5×10^4 cells/well (pig BMM) of a 96 well plate were plated in triplicate or quadruplicate and appropriate treatment (serial dilutions of rh-CSF-1 or porcine Fc CSF-1 were added to make a total volume of 100 μl per well. Cells were incubated for 48 hours at 37° C. with 5% CO2. For Ba/F3 cells, 10 μl of MTT (Sigma Aldrich M5655) stock solution (5 mg/ml) was added directly to each well to achieve a final concentration of 0.5 mg/ml and incubated at 37° C. for 3 hours prior to solubilisation overnight. For adherent mouse BMM cells, culture medium was replaced with 50 μl of 1 mg/ml MTT solution and incubated for 1 hour at 37° C. MTT solution was removed and tetrazolium salt solubilised with 100 μl of solubilisation agent (0.1M HCL, 10% Triton x-100 and isopropanol) followed by incubation at 37° C. with 5% CO2 for 10 minutes. Plates were read at 570 nm with reference wavelength of 405 nm.
Mice were injected with Fc-CSF-1 subcutaneously on each of 4 days and sacrificed on the 5th day. The mice were csf1r-EGFP (MacGreen) mice on the C57BI/6 background. […]

[3] = administered immediately following 2/3 partial hepatectomy, vs control
[4] = day 2 following partial hepatectomy, vs controls
[5] = all injury models, vs PBS control

B1: Fc-CSF-1: active fragment of porcine CSF-1 (SEQ ID NO:1) linked to the hinge-CH3 region of porcine IgG1a (SEQ ID NO:2) (protein, listed as Sus scrofa)
chain: SENCSHMIGDGHLKVLQQLIDSQMETSCQIAFEFVDQEQLTDPVCYLKKAFLQVQDILDETMRFRDNTPNANVIVQLQELSLRLNSCFTKDYEEQDKACVRTFYETPLQLLEKIKNVFNETKNLLKKDWNIFSKNCNNSFAKCSSQHERQPEGRGTKTKPPCPICPGCEVAGPSVFIFPPKPKDTLMISQTPEVTCVVVDVSKEHAEVQFSWYVDGVEVHTAETRPKEEQFNSTYRVVSVLPIQHQDWLKGKEFKCKVNNVDLPAPITRTISKAIGQSREPQVYTLPPPAEELSRSKVTVTCLVIGFYPPDIHVEWKSNGQPEPEGNYRTTPPQQDVDGTFFLYSKLAVDKARWDHGETFECAVMHEALHNHYTQKSISKTQGK
Q: Which hepatocyte proliferation (male C57BI6 mice [1]; [3]) does the source give for B1 here?
A: increasing

Q: What about the “liver weight to body weight ratio” value (male C57BI6 mice [1]; [3]) of the same molecule?
A: significantly increasing

Q: What about the “gene expression of oncostatin M (OSM)” value (male C57BI6 mice [1]; [4]) of the same molecule?
A: significantly enhanced

Q: What about the “gene expression of pro-regenerative cytokine 116” value (male C57BI6 mice [1]; [4]) of the same molecule?
A: significantly enhanced

Q: And the “urokinase receptor (UR) expression” value (male C57BI6 mice [1]; following partial hepatectomy, vs controls)?
A: significantly elevated

Q: What about the “increase in circulating monocyte numbers” value (weaner pigs) of the same molecule?
A: 2-3 fold

Q: And the hepatic weights (male C57BI6 mice [2]; [5])?
A: growth promoting effect

Q: And the hepatocyte proliferation (male C57BI6 mice [2]; [5])?
A: growth promoting effect

Q: What about the “tolerability of interventions and treatments” value (male C57BI6 mice [2]; subcutaneously immediately after injury, then every 24 hours for three further doses) of the same molecule?
A: well tolerated

Q: And the “biological activity (proliferation) compared with recombinant pig CSF-1” value (mouse bone marrow cells)?
A: no difference in biological activity
